According to publication PMC6464389 (Circulation, 2019):

Target: recombinant GPIbα extracellular domain (UniProt P07359 17-531)
Experiment: SPR

B1: recombinant wild-type protein disulfide isomerase (wtPDI) (enzyme)
chain: not shown
Question: For B1, which Kd is on record?
Answer: The Kd was 900 nM.
